{"source": "patent US10301203B2", "about": "“Chloroperoxidase-catalyzed degradation of pharmaceutical pollutants in wastewater” (THE FLORIDA INTERNATIONAL UNIVERSITY BOARD OF TRUSTEES, priority 2017, dated 2019)", "assay_type_in_all_cases": "biochemical", "details_in_all_cases": "CPO Rz=1.03", "key": {"[1]": {"test": "Aromatic hydroxylation activity of CPO, naphthalene hydroxylation", "procedure": "(§1) The halogenation activity of CPO used in this study was 4232 U·mL^−1 based on the standard MCD assay (Hager et al., 1966). The aromatic hydroxylation activity (3563 U·mL-1) of the enzyme was determined by monitoring the hydroxylation of naphthalene into I-naphthol (Kluge et al., 2007). The classic peroxidase activity of the enzyme determined using ABTS as the substrate was 3071 U·mL^−1 (Manoj et al., 2008)."}, "[2]": {"test": "Classic peroxidase activity of CPO, ABTS substrate", "procedure": "as §1"}, "[3]": {"test": "Standard MCD assay, halogenation activity of CPO", "procedure": "as §1"}}, "data": [{"molecule": "CPO: heme-containing glycoprotein secreted by the fungus Caldariomyces fumago (protein, UniProt P04963 21-319, looked up) Chloroperoxidase: QEPGSGIGYPYDNNTLPYVAPGPTDSRAPCPALNALANHGYIPHDGRAISRETLQNAFLNHMGIANSVIELALTNAFVVCEYVTGSDCGDSLVNLTLLAEPHAFEHDHSFSRKDYKQGVANSNDFIDNRNFDAETFQTSLDVVAGKTHFDYADMNEIRLQRESLSNELDFPGWFTESKPIQNVESGFIFALVSDFNLPDNDENPLVRIDWWKYWFTNESFPYHLGWHPPSPAREIEFVTSASSAVLAASVTSTPSSLPSGAIGPGAEAVPLSFASTMTPFLLATNAPYYAQDPTLGPND", "values": [{"measurement": "aromatic hydroxylation activity", "setting": "[1]", "result": 3563, "unit": "U·mL-1"}, {"measurement": "classic peroxidase activity", "setting": "[2]", "result": 3071, "unit": "U·mL^−1"}, {"measurement": "halogenation activity", "setting": "[3]", "result": 4232, "unit": "U·mL^−1"}]}]}
